Data as given in the Immune Epitope Database (IEDB).

Tests used:
HLA-A*02:01 [1] = experiment: IEDB peptide-MHC binding, purified MHC/competitive/fluorescence; filed as Kd, often an IC50 or EC50 that approximates it; ≥ and ≤ were set here for values at or beyond the usual limits of such assays; conditions: source organism: Human immunodeficiency virus 1
HLA-A*26:02 = experiment: as above; conditions: source organism: Human immunodeficiency virus 1
HLA-A*68:02 = experiment: as above; conditions: source organism: Human immunodeficiency virus 1
HLA-B*08:03 = experiment: as above; conditions: source organism: Human immunodeficiency virus 1
HLA-B*15:01 [2] = experiment: as above; conditions: source organism: Human immunodeficiency virus 1
HLA-B*39:01 = experiment: as above; conditions: source organism: Human immunodeficiency virus 1
HLA-A*02:03 = experiment: as above; conditions: source organism: Human immunodeficiency virus 1
HLA-A*02:06 [3] = experiment: as above; conditions: source organism: Human immunodeficiency virus 1
HLA-A*26:01 [4] = experiment: as above; conditions: source organism: Human immunodeficiency virus 1
HLA-A*30:01 = experiment: as above
HLA-B*07:02 = experiment: as above
HLA-B*08:02 = experiment: as above; conditions: source organism: Human immunodeficiency virus 1
HLA-B*15:09 = experiment: as above; conditions: source organism: Human immunodeficiency virus 1
HLA-A*02:01 [5] = experiment: IEDB peptide-MHC binding, purified MHC/direct/fluorescence; filed as Kd, often an IC50 or EC50 that approximates it; ≥ and ≤ were set here for values at or beyond the usual limits of such assays; conditions: source organism: Vibrio parahaemolyticus AQ3810
HLA-A*02:06 [6] = experiment: as above; conditions: source organism: Vibrio parahaemolyticus AQ3810
HLA-A*02:19 = experiment: as above; conditions: source organism: Vibrio parahaemolyticus AQ3810
HLA-A*03:01 = experiment: as above; conditions: source organism: Vibrio parahaemolyticus AQ3810
HLA-A*23:01 = experiment: as above; conditions: source organism: Vibrio parahaemolyticus AQ3810
HLA-A*24:03 = experiment: as above; conditions: source organism: Vibrio parahaemolyticus AQ3810
HLA-A*26:01 [7] = experiment: as above; conditions: source organism: Vibrio parahaemolyticus AQ3810
HLA-A*29:02 = experiment: as above; conditions: source organism: Vibrio parahaemolyticus AQ3810
HLA-A*69:01 = experiment: as above; conditions: source organism: Vibrio parahaemolyticus AQ3810
HLA-B*15:01 [8] = experiment: as above; conditions: source organism: Vibrio parahaemolyticus AQ3810
HLA-B*15:17 = experiment: as above; conditions: source organism: Vibrio parahaemolyticus AQ3810
HLA-B*18:01 = experiment: as above; conditions: source organism: Vibrio parahaemolyticus AQ3810
HLA-B*27:03 = experiment: as above; conditions: source organism: Vibrio parahaemolyticus AQ3810
HLA-B*46:01 = experiment: as above; conditions: source organism: Vibrio parahaemolyticus AQ3810
HLA-B*51:01 = experiment: as above; conditions: source organism: Vibrio parahaemolyticus AQ3810
HLA-B*57:01 = experiment: as above; conditions: source organism: Vibrio parahaemolyticus AQ3810
HLA-A*01:01 = experiment: IEDB peptide-MHC binding, purified MHC/competitive/fluorescence; filed as Kd, often an IC50 or EC50 that approximates it; ≥ and ≤ were set here for values at or beyond the usual limits of such assays; conditions: source organism: Vibrio parahaemolyticus AQ3810
HLA-A*11:01 = experiment: as above; conditions: source organism: Vibrio parahaemolyticus AQ3810
HLA-A*30:02 = experiment: as above; conditions: source organism: Vibrio parahaemolyticus AQ3810
HLA-A*66:01 = experiment: as above; conditions: source organism: Vibrio parahaemolyticus AQ3810
HLA-B*08:01 = experiment: as above; conditions: source organism: Vibrio parahaemolyticus AQ3810
HLA-B*14:02 = experiment: as above; conditions: source organism: Vibrio parahaemolyticus AQ3810
HLA-B*27:05 = experiment: as above; conditions: source organism: Vibrio parahaemolyticus AQ3810
HLA-B*40:01 = experiment: as above; conditions: source organism: Vibrio parahaemolyticus AQ3810
HLA-B*44:02 = experiment: as above; conditions: source organism: Vibrio parahaemolyticus AQ3810
HLA-B*53:01 = experiment: as above; conditions: source organism: Vibrio parahaemolyticus AQ3810
HLA-B*58:01 = experiment: as above; conditions: source organism: Vibrio parahaemolyticus AQ3810
[9] = source organism: Human immunodeficiency virus 1
[10] = source organism: Vibrio parahaemolyticus AQ3810

## EIKDTEEAL
HLA-A*02:01 [1]
  Kd: ≥ 20 µM
HLA-A*26:02
  Kd: ≥ 20 µM
HLA-A*68:02
  Kd: 0.183 µM
HLA-B*08:03
  Kd: ≥ 20 µM
HLA-B*15:01 [2]
  Kd: ≥ 20 µM
HLA-B*39:01
  Kd: ≥ 20 µM

## EVKSLFNTV
HLA-A*02:01 [1]
  Kd: ≥ 20 µM
HLA-A*02:03
  Kd: ≥ 20 µM
HLA-A*02:06 [3]
  Kd: 0.0849 µM
HLA-A*26:01 [4]
  Kd: ≥ 20 µM
HLA-A*26:02
  Kd: 0.199 µM
HLA-A*30:01; [9]
  Kd: ≥ 20 µM
HLA-A*68:02
  Kd: 0.0004 µM
HLA-B*07:02; [9]
  Kd: ≥ 20 µM
HLA-B*08:02
  Kd: ≥ 20 µM
HLA-B*15:09
  Kd: ≥ 20 µM

## HQFTSNPEV
HLA-A*02:01 [5]
  Kd: 0.004 µM
HLA-A*02:06 [6]
  Kd: 0.008 µM
HLA-A*02:19
  Kd: ≥ 20 µM
HLA-A*03:01
  Kd: ≥ 20 µM
HLA-A*23:01
  Kd: ≥ 20 µM
HLA-A*24:03
  Kd: ≥ 20 µM
HLA-A*26:01 [7]
  Kd: ≥ 20 µM
HLA-A*29:02
  Kd: ≥ 20 µM
HLA-A*69:01
  Kd: ≥ 20 µM
HLA-B*15:01 [8]
  Kd: ≥ 20 µM
HLA-B*15:17
  Kd: ≥ 20 µM
HLA-B*18:01
  Kd: ≥ 20 µM
HLA-B*27:03
  Kd: ≥ 20 µM
HLA-B*46:01
  Kd: ≥ 20 µM
HLA-B*51:01
  Kd: ≥ 20 µM
HLA-B*57:01
  Kd: ≥ 20 µM
HLA-A*01:01
  Kd: ≥ 5 µM
HLA-A*11:01
  Kd: ≥ 5 µM
HLA-A*30:01; [10]
  Kd: ≥ 5 µM
HLA-A*30:02
  Kd: ≥ 5 µM
HLA-A*66:01
  Kd: ≥ 5 µM
HLA-B*07:02; [10]
  Kd: ≥ 5 µM
HLA-B*08:01
  Kd: ≥ 5 µM
HLA-B*14:02
  Kd: ≥ 5 µM
HLA-B*27:05
  Kd: ≥ 5 µM
HLA-B*40:01
  Kd: 0.416 µM
HLA-B*44:02
  Kd: ≥ 5 µM
HLA-B*53:01
  Kd: ≥ 5 µM
HLA-B*58:01
  Kd: ≥ 5 µM
